{
  "source": "IntAct's records for PubMed 15105431",
  "parents": {"B1": {"name": "T-cell surface antigen CD2 (Homo sapiens), P06729 (parent)", "chain": "MSFPCKFVASFLLIFNVSSKGAVSKEITNALETWGALGQDINLDIPSFQMSDDIDDIKWEKTSDKKKIAQFRKEKETFKEKDTYKLFKNGTLKIKHLKTDDQDIYKVSIYDTKGKNVLEKIFDLKIQERVSKPKISWTCINTTLTCEVMNGTDPELNLYQDGKHLKLSQRVITHKWTTSLSAKFKCTAGNKVSKESSVEPVSCPEKGLDIYLIIGICGGGSLLMVFVALLVFYITKRKKQRSRRNDEELETRAHRVATEERGRKPHQIPASTPQNPATSQHPPPPPGHRSQAPSHRPPPPGHRVQHQPQKRPPAPSGTQVHQQKGPPLPRPRVQPKPPHGAAENSLSPSSN", "partner": "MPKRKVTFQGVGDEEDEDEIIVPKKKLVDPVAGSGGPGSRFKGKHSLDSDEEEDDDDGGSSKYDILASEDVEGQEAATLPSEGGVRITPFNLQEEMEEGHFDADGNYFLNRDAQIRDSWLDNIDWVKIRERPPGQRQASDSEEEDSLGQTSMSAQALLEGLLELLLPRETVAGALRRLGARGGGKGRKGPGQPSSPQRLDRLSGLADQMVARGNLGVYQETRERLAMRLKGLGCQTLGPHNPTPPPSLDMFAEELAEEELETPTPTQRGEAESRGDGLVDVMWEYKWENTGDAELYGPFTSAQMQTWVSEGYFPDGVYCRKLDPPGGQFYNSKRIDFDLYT"}},
  "data": [
    {"variants_of": "B1", "conditions": "with cd2b2_human CD2BP2, O95400", "values": [
      {"variant": "MSFPCKFVASFLLIFNVSSKGAVSKEITNALETWGALGQDINLDIPSFQMSDDIDDIKWEKTSDKKKIAQFRKEKETFKEKDTYKLFKNGTLKIKHLKTDDQDIYKVSIYDTKGKNVLEKIFDLKIQERVSKPKISWTCINTTLTCEVMNGTDPELNLYQDGKHLKLSQRVITHKWTTSLSAKFKCTAGNKVSKESSVEPVSCPEKGLDIYLIIGICGGGSLLMVFVALLVFYITKRKKQRSRRNDEELETRAHRVATEERGRKPHQIPASTPQNPATSQHPPPPPGHRSQAPSHEPPPPGHRVQHQPQKRPPAPSGTQVHQQKGPPLPRPRVQPKPPHGAAENSLSPSSN", "note": "[R296E]", "effect of a mutation on the interaction": "disrupting interaction strength"},
      {"variant": "MSFPCKFVASFLLIFNVSSKGAVSKEITNALETWGALGQDINLDIPSFQMSDDIDDIKWEKTSDKKKIAQFRKEKETFKEKDTYKLFKNGTLKIKHLKTDDQDIYKVSIYDTKGKNVLEKIFDLKIQERVSKPKISWTCINTTLTCEVMNGTDPELNLYQDGKHLKLSQRVITHKWTTSLSAKFKCTAGNKVSKESSVEPVSCPEKGLDIYLIIGICGGGSLLMVFVALLVFYITKRKKQRSRRNDEELETRAHRVATEERGRKPHQIPASTPQNPATSQHPPPPPGHRSQAPSHCPPPPGHRVQHQPQKRPPAPSGTQVHQQKGPPLPRPRVQPKPPHGAAENSLSPSSN", "note": "[R296C]", "effect of a mutation on the interaction": "decreasing interaction strength"},
      {"variant": "MSFPCKFVASFLLIFNVSSKGAVSKEITNALETWGALGQDINLDIPSFQMSDDIDDIKWEKTSDKKKIAQFRKEKETFKEKDTYKLFKNGTLKIKHLKTDDQDIYKVSIYDTKGKNVLEKIFDLKIQERVSKPKISWTCINTTLTCEVMNGTDPELNLYQDGKHLKLSQRVITHKWTTSLSAKFKCTAGNKVSKESSVEPVSCPEKGLDIYLIIGICGGGSLLMVFVALLVFYITKRKKQRSRRNDEELETRAHRVATEERGRKPHQIPASTPQNPATSQHPPPPPGHRSQAPSHMPPPPGHRVQHQPQKRPPAPSGTQVHQQKGPPLPRPRVQPKPPHGAAENSLSPSSN", "note": "[R296M]", "effect of a mutation on the interaction": "decreasing interaction strength"},
      {"variant": "MSFPCKFVASFLLIFNVSSKGAVSKEITNALETWGALGQDINLDIPSFQMSDDIDDIKWEKTSDKKKIAQFRKEKETFKEKDTYKLFKNGTLKIKHLKTDDQDIYKVSIYDTKGKNVLEKIFDLKIQERVSKPKISWTCINTTLTCEVMNGTDPELNLYQDGKHLKLSQRVITHKWTTSLSAKFKCTAGNKVSKESSVEPVSCPEKGLDIYLIIGICGGGSLLMVFVALLVFYITKRKKQRSRRNDEELETRAHRVATEERGRKPHQIPASTPQNPATSQHPPPPPGHRSQAPSHAPPPPGHRVQHQPQKRPPAPSGTQVHQQKGPPLPRPRVQPKPPHGAAENSLSPSSN", "note": "[R296A]", "effect of a mutation on the interaction": "decreasing interaction strength"},
      {"variant": "MSFPCKFVASFLLIFNVSSKGAVSKEITNALETWGALGQDINLDIPSFQMSDDIDDIKWEKTSDKKKIAQFRKEKETFKEKDTYKLFKNGTLKIKHLKTDDQDIYKVSIYDTKGKNVLEKIFDLKIQERVSKPKISWTCINTTLTCEVMNGTDPELNLYQDGKHLKLSQRVITHKWTTSLSAKFKCTAGNKVSKESSVEPVSCPEKGLDIYLIIGICGGGSLLMVFVALLVFYITKRKKQRSRRNDEELETRAHRVATEERGRKPHQIPASTPQNPATSQHPPPPPGHRSQAPSHDPPPPGHRVQHQPQKRPPAPSGTQVHQQKGPPLPRPRVQPKPPHGAAENSLSPSSN", "note": "[R296D]", "effect of a mutation on the interaction": "disrupting interaction strength"},
      {"variant": "MSFPCKFVASFLLIFNVSSKGAVSKEITNALETWGALGQDINLDIPSFQMSDDIDDIKWEKTSDKKKIAQFRKEKETFKEKDTYKLFKNGTLKIKHLKTDDQDIYKVSIYDTKGKNVLEKIFDLKIQERVSKPKISWTCINTTLTCEVMNGTDPELNLYQDGKHLKLSQRVITHKWTTSLSAKFKCTAGNKVSKESSVEPVSCPEKGLDIYLIIGICGGGSLLMVFVALLVFYITKRKKQRSRRNDEELETRAHRVATEERGRKPHQIPASTPQNPATSQHPPPPPGHRSQAPSHLPPPPGHRVQHQPQKRPPAPSGTQVHQQKGPPLPRPRVQPKPPHGAAENSLSPSSN", "note": "[R296L]", "effect of a mutation on the interaction": "decreasing interaction strength"},
      {"variant": "MSFPCKFVASFLLIFNVSSKGAVSKEITNALETWGALGQDINLDIPSFQMSDDIDDIKWEKTSDKKKIAQFRKEKETFKEKDTYKLFKNGTLKIKHLKTDDQDIYKVSIYDTKGKNVLEKIFDLKIQERVSKPKISWTCINTTLTCEVMNGTDPELNLYQDGKHLKLSQRVITHKWTTSLSAKFKCTAGNKVSKESSVEPVSCPEKGLDIYLIIGICGGGSLLMVFVALLVFYITKRKKQRSRRNDEELETRAHRVATEERGRKPHQIPASTPQNPATSQHPPPPPGHRSQAPSDRPPPPGHRVQHQPQKRPPAPSGTQVHQQKGPPLPRPRVQPKPPHGAAENSLSPSSN", "note": "[H295D]", "effect of a mutation on the interaction": "decreasing interaction strength"},
      {"variant": "MSFPCKFVASFLLIFNVSSKGAVSKEITNALETWGALGQDINLDIPSFQMSDDIDDIKWEKTSDKKKIAQFRKEKETFKEKDTYKLFKNGTLKIKHLKTDDQDIYKVSIYDTKGKNVLEKIFDLKIQERVSKPKISWTCINTTLTCEVMNGTDPELNLYQDGKHLKLSQRVITHKWTTSLSAKFKCTAGNKVSKESSVEPVSCPEKGLDIYLIIGICGGGSLLMVFVALLVFYITKRKKQRSRRNDEELETRAHRVATEERGRKPHQIPASTPQNPATSQHPPPPPGHRSQAPSERPPPPGHRVQHQPQKRPPAPSGTQVHQQKGPPLPRPRVQPKPPHGAAENSLSPSSN", "note": "[H295E]", "effect of a mutation on the interaction": "decreasing interaction strength"},
      {"variant": "MSFPCKFVASFLLIFNVSSKGAVSKEITNALETWGALGQDINLDIPSFQMSDDIDDIKWEKTSDKKKIAQFRKEKETFKEKDTYKLFKNGTLKIKHLKTDDQDIYKVSIYDTKGKNVLEKIFDLKIQERVSKPKISWTCINTTLTCEVMNGTDPELNLYQDGKHLKLSQRVITHKWTTSLSAKFKCTAGNKVSKESSVEPVSCPEKGLDIYLIIGICGGGSLLMVFVALLVFYITKRKKQRSRRNDEELETRAHRVATEERGRKPHQIPASTPQNPATSQHPPPPPGHRSQAPSHRPHPPGHRVQHQPQKRPPAPSGTQVHQQKGPPLPRPRVQPKPPHGAAENSLSPSSN", "note": "[P298H]", "effect of a mutation on the interaction": "decreasing interaction strength"},
      {"variant": "MSFPCKFVASFLLIFNVSSKGAVSKEITNALETWGALGQDINLDIPSFQMSDDIDDIKWEKTSDKKKIAQFRKEKETFKEKDTYKLFKNGTLKIKHLKTDDQDIYKVSIYDTKGKNVLEKIFDLKIQERVSKPKISWTCINTTLTCEVMNGTDPELNLYQDGKHLKLSQRVITHKWTTSLSAKFKCTAGNKVSKESSVEPVSCPEKGLDIYLIIGICGGGSLLMVFVALLVFYITKRKKQRSRRNDEELETRAHRVATEERGRKPHQIPASTPQNPATSQHPPPPPGHRSQAPSHRPEPPGHRVQHQPQKRPPAPSGTQVHQQKGPPLPRPRVQPKPPHGAAENSLSPSSN", "note": "[P298E]", "effect of a mutation on the interaction": "disrupting interaction strength"},
      {"variant": "MSFPCKFVASFLLIFNVSSKGAVSKEITNALETWGALGQDINLDIPSFQMSDDIDDIKWEKTSDKKKIAQFRKEKETFKEKDTYKLFKNGTLKIKHLKTDDQDIYKVSIYDTKGKNVLEKIFDLKIQERVSKPKISWTCINTTLTCEVMNGTDPELNLYQDGKHLKLSQRVITHKWTTSLSAKFKCTAGNKVSKESSVEPVSCPEKGLDIYLIIGICGGGSLLMVFVALLVFYITKRKKQRSRRNDEELETRAHRVATEERGRKPHQIPASTPQNPATSQHPPPPPGHRSQAPSHRPNPPGHRVQHQPQKRPPAPSGTQVHQQKGPPLPRPRVQPKPPHGAAENSLSPSSN", "note": "[P298N]", "effect of a mutation on the interaction": "disrupting interaction strength"},
      {"variant": "MSFPCKFVASFLLIFNVSSKGAVSKEITNALETWGALGQDINLDIPSFQMSDDIDDIKWEKTSDKKKIAQFRKEKETFKEKDTYKLFKNGTLKIKHLKTDDQDIYKVSIYDTKGKNVLEKIFDLKIQERVSKPKISWTCINTTLTCEVMNGTDPELNLYQDGKHLKLSQRVITHKWTTSLSAKFKCTAGNKVSKESSVEPVSCPEKGLDIYLIIGICGGGSLLMVFVALLVFYITKRKKQRSRRNDEELETRAHRVATEERGRKPHQIPASTPQNPATSQHPPPPPGHRSQAPSHRPMPPGHRVQHQPQKRPPAPSGTQVHQQKGPPLPRPRVQPKPPHGAAENSLSPSSN", "note": "[P298M]", "effect of a mutation on the interaction": "disrupting interaction strength"},
      {"variant": "MSFPCKFVASFLLIFNVSSKGAVSKEITNALETWGALGQDINLDIPSFQMSDDIDDIKWEKTSDKKKIAQFRKEKETFKEKDTYKLFKNGTLKIKHLKTDDQDIYKVSIYDTKGKNVLEKIFDLKIQERVSKPKISWTCINTTLTCEVMNGTDPELNLYQDGKHLKLSQRVITHKWTTSLSAKFKCTAGNKVSKESSVEPVSCPEKGLDIYLIIGICGGGSLLMVFVALLVFYITKRKKQRSRRNDEELETRAHRVATEERGRKPHQIPASTPQNPATSQHPPPPPGHRSQAPSHRPDPPGHRVQHQPQKRPPAPSGTQVHQQKGPPLPRPRVQPKPPHGAAENSLSPSSN", "note": "[P298D]", "effect of a mutation on the interaction": "disrupting interaction strength"},
      {"variant": "MSFPCKFVASFLLIFNVSSKGAVSKEITNALETWGALGQDINLDIPSFQMSDDIDDIKWEKTSDKKKIAQFRKEKETFKEKDTYKLFKNGTLKIKHLKTDDQDIYKVSIYDTKGKNVLEKIFDLKIQERVSKPKISWTCINTTLTCEVMNGTDPELNLYQDGKHLKLSQRVITHKWTTSLSAKFKCTAGNKVSKESSVEPVSCPEKGLDIYLIIGICGGGSLLMVFVALLVFYITKRKKQRSRRNDEELETRAHRVATEERGRKPHQIPASTPQNPATSQHPPPPPGHRSQAPDHRPPPPGHRVQHQPQKRPPAPSGTQVHQQKGPPLPRPRVQPKPPHGAAENSLSPSSN", "note": "[S294D]", "effect of a mutation on the interaction": "decreasing interaction strength"},
      {"variant": "MSFPCKFVASFLLIFNVSSKGAVSKEITNALETWGALGQDINLDIPSFQMSDDIDDIKWEKTSDKKKIAQFRKEKETFKEKDTYKLFKNGTLKIKHLKTDDQDIYKVSIYDTKGKNVLEKIFDLKIQERVSKPKISWTCINTTLTCEVMNGTDPELNLYQDGKHLKLSQRVITHKWTTSLSAKFKCTAGNKVSKESSVEPVSCPEKGLDIYLIIGICGGGSLLMVFVALLVFYITKRKKQRSRRNDEELETRAHRVATEERGRKPHQIPASTPQNPATSQHPPPPPGHRSQAPEHRPPPPGHRVQHQPQKRPPAPSGTQVHQQKGPPLPRPRVQPKPPHGAAENSLSPSSN", "note": "[S294E]", "effect of a mutation on the interaction": "decreasing interaction strength"},
      {"variant": "MSFPCKFVASFLLIFNVSSKGAVSKEITNALETWGALGQDINLDIPSFQMSDDIDDIKWEKTSDKKKIAQFRKEKETFKEKDTYKLFKNGTLKIKHLKTDDQDIYKVSIYDTKGKNVLEKIFDLKIQERVSKPKISWTCINTTLTCEVMNGTDPELNLYQDGKHLKLSQRVITHKWTTSLSAKFKCTAGNKVSKESSVEPVSCPEKGLDIYLIIGICGGGSLLMVFVALLVFYITKRKKQRSRRNDEELETRAHRVATEERGRKPHQIPASTPQNPATSQHPPPPPGHRSQAPSHRPPAPGHRVQHQPQKRPPAPSGTQVHQQKGPPLPRPRVQPKPPHGAAENSLSPSSN", "note": "[P299A]", "effect of a mutation on the interaction": "disrupting interaction strength"}
    ]}
  ]
}
